The values below come from patent US20250064952A1 (ACCELERON PHARMA, published 2025).

Sequences and labels used below:
B1: ActRIIB-Fc homodimer (Fc fusion, human, UniProt Q13705 19-137, looked up, not shown: a dimerising Fc or GST)
chain: SGRGEAETRECIYYNANWELERTNQSGLERCEGEQDKRLHCYASWRNSSGTIELVKKGCWLDDFNCYDRQECVATEENPQVYFCCCEGNFCNERFTHLPEAGGPEVTYEPPPTAPTLLT
notes: extracellular domain; also called unmodified ActRIIB-Fc homodimer; ActRIIB-Fc:ActRIIB-Fc homodimer
B2: GDF3 (ligand, UniProt Q9NR23 251-364, looked up)
chain: AAIPVPKLSCKNLCHRHQLFINFRDLGWHKWIIAPKGFMANYCHGECPFSLTISLNSSNYAFMQALMHAVDPEIPQAVCIPTKLSPISMLYQDNNDNVILRHYEDMVVDECGCG
notes: also called VGR2
B3: activin A (ligand, UniProt P08476 311-426, looked up)
chain: GLECDGKVNICCKKQFFVSFKDIGWNDWIIAPSGYHANYCEGECPSHIAGTSGSSLSFHSTVINHYRMRGHSPFANLKSCCVPTKLRPMSMLYYDDGQNIIKKDIQNMIVEECGCS
B4: GDF11 (ligand, UniProt O95390 299-407, looked up)
chain: NLGLDCDEHSSESRCCRYPLTVDFEAFGWDWIIAPKRYKANYCSGQCEYMFMQKYPHTHLVQQANPRGSAGPCCTPTKMSPINMLYFNDKQQIIYGKIPGMVVDRCGCS
notes: also called BMP11
B5: BMP10 (ligand, UniProt O95393 317-424, looked up)
chain: NAKGNYCKRTPLYIDFKEIGWDSWIIAPPGYEAYECRGVCNYPLAEHLTPTKHAIIQALVHLKNSQKASKACCVPTKLEPISILYLDKGVVTYKFKYEGMAVSECGCR
B6: BMP9 (ligand, UniProt Q9UK05 320-429, looked up)
chain: SAGAGSHCQKTSLRVNFEDIGWDSWIIAPKEYEAYECKGGCFFPLADDVTPTKHAIVQTLVHLKFPTKVGKACCVPTKLSPISVLYKDDMGVPTLKYHYEGMSVAECGCR
notes: also called GDF2

For assay [1], the target named is T1, BMP6 (UniProt P22004 382-513, limits assumed).
T1 sequence (looked up): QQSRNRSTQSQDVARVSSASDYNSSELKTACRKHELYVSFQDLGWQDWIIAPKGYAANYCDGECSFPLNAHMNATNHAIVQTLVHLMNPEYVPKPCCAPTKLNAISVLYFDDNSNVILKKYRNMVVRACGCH
The assay can be described thus: SPR (Biacore), anti-Fc capture, ligand in flow. As to the method: (§1) A Biacore™-based binding assay was used to compare ligand binding selectivity of the ActRIIB-Fc:ALK4-Fc heterodimeric complex described above with that of ActRIIB-Fc and ALK4-Fc homodimer complexes. The ActRIIB-Fc:ALK4-Fc heterodimer, ActRIIB-Fc homodimer, and ALK4-Fc homodimer were independently captured onto the system using an anti-Fc antibody. Ligands were injected and allowed to flow over the captured receptor protein. Results are summarized in the table below, in which ligand off-rates (kd) most indicative of effective ligand traps are denoted by bold font.

The next assay has as its target T2, activin AC (UniProt P08476 311-426; P55103 237-352).
T2 construct: Heterodimer of beta A and beta C
T2 sequence (looked up) 1: B3 chain
T2 sequence (looked up) 2: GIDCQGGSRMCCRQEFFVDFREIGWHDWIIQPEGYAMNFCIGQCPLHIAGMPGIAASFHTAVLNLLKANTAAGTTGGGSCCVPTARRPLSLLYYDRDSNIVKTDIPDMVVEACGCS
Briefly: SPR (Biacore), anti-Fc capture, ligand in flow. How it is done:
(§2) A Biacore™-based binding assay was used to compare ligand binding selectivity of the ActRIIB-Fc:ALK7-Fc heterodimeric complex described above with that of ActRIIB-Fc and ALK7-Fc homodimeric complexes. The ActRIIB-Fc:ALK7-Fc heterodimer, ActRIIB-Fc homodimer, and ALK7-Fc homodimer were independently captured onto the system using an anti-Fc antibody. Ligands were injected and allowed to flow over the captured receptor protein. Results are summarized in the table below, in which ligand off-rates (kd) most indicative of effective ligand traps are denoted by bold font.

A further assay concerns the target T3, BMP5 (UniProt P22003 317-454, limits assumed).
T3 sequence (looked up): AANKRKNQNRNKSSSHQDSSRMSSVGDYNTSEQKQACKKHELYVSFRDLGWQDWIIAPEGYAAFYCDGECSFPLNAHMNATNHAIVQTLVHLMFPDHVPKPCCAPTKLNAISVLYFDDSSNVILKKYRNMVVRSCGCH
The assay can be described thus: SPR (Biacore), anti-Fc capture, ligand in flow. How it is done:
as §2

The target in assay [2] is T1, BMP6. Briefly: SPR (Biacore), anti-Fc capture, ligand in flow. How it is done:
as §2
This is another data set of the same source.

Assay [3] has as its target T1, BMP6. The assay can be described thus: SPR (Biacore), 37 C, anti-Fc capture, ligand in flow. How it is done:
(§3) A Biacore™-based binding assay was used to compare the ligand binding kinetics of an ActRIIB-Fc:ActRIIB(L79E)-Fc heterodimer with those of unmodified ActRIIB-Fc homodimer. Fusion proteins were captured onto the system using an anti-Fc antibody. Ligands were then injected and allowed to flow over the captured receptor protein at 37° C. Results are summarized in the table below, in which ligand off-rates (kd) most indicative of effective ligand traps are denoted in bold.

In assay [4] the target is B1. The assay can be described thus: SPR (Biacore), anti-Fc capture, ligand in flow. How it is done: as §1
Assay [5] addresses B1. The assay can be described thus: SPR (Biacore), anti-Fc capture, ligand in flow. As to the method: as §2
The source holds these as a separate data set.

Assay [6] deals with B1. Briefly: SPR (Biacore), 37 C, anti-Fc capture, ligand in flow. How it is done:
as §3

B1: the equilibrium dissociation constant (Kd) was 0.19 nM with BMP6 [1]; 0.16 nM in the assay with activin AC; 2.9 nM with BMP5; 0.16 nM with BMP6 [2]; 0.056 nM with BMP6 [3]. Moreover, the koff with BMP6 [1] turned out to be 0.0068 s⁻¹; in the assay with activin AC it was 0.0031 s⁻¹; in the assay with BMP5 it was 0.075 s⁻¹; with BMP6 [2] it was 0.0039 s⁻¹; in the assay with BMP6 [3] it was 0.0074 s⁻¹. Also, the association rate constant (kon) with BMP6 [1] is 3.2e+07 M⁻¹ s⁻¹; with activin AC, 2e+07 M⁻¹ s⁻¹; with BMP5, 2.6e+07 M⁻¹ s⁻¹; with BMP6 [2], 2.4e+07 M⁻¹ s⁻¹; with BMP6 [3], 1.3e+08 M⁻¹ s⁻¹.

Regarding B2, in the assay with ActRIIB-Fc homodimer [4], binding was put at a Kd of 1.5 nM, the dissociation rate constant (koff) was 0.0022 s⁻¹ and the association rate constant (kon) came out at 1.4e+06 M⁻¹ s⁻¹. Also, in the assay with ActRIIB-Fc homodimer [5], the affinity, expressed as Kd, was 1.5 nM; the koff is 0.0022 s⁻¹; the kon came to 1.4e+06 M⁻¹ s⁻¹. Also, in the assay with ActRIIB-Fc homodimer [6], binding was put at a Kd of 1.5 nM, the koff stood at 0.0022 s⁻¹ and the kon was determined as 1.4e+06 M⁻¹ s⁻¹.

In the case of B3, the Kd in the assay with ActRIIB-Fc homodimer [4] was found to be 0.019 nM; with ActRIIB-Fc homodimer [5], 0.011 nM; in the assay with ActRIIB-Fc homodimer [6], 0.025 nM. Also, the koff stood at 0.00023 s⁻¹ with ActRIIB-Fc homodimer [4], 0.00014 s⁻¹ with ActRIIB-Fc homodimer [5] and 0.00019 s⁻¹ with ActRIIB-Fc homodimer [6]. The results for the kon with ActRIIB-Fc homodimer [4], with ActRIIB-Fc homodimer [5] and with ActRIIB-Fc homodimer [6] were 1.2e+07 M⁻¹ s⁻¹, 1.3e+07 M⁻¹ s⁻¹ and 7.4e+06 M⁻¹ s⁻¹, respectively.

As to B4, the Kd in the assay with ActRIIB-Fc homodimer [4] worked out at 0.002 nM; with ActRIIB-Fc homodimer [5] it was 0.002 nM; in the assay with ActRIIB-Fc homodimer [6], 0.004 nM. Further, the values for the koff with ActRIIB-Fc homodimer [4], in the assay with ActRIIB-Fc homodimer [5] and in the assay with ActRIIB-Fc homodimer [6] were 0.00011 s⁻¹, 0.00015 s⁻¹ and 0.00017 s⁻¹, respectively. The kon with ActRIIB-Fc homodimer [4] worked out at 5e+07 M⁻¹ s⁻¹; with ActRIIB-Fc homodimer [5], 9.6e+07 M⁻¹ s⁻¹; with ActRIIB-Fc homodimer [6], 4.1e+07 M⁻¹ s⁻¹.

In the case of B5, in the assay with ActRIIB-Fc homodimer [4], the Kd was determined as 0.011 nM, the off-rate constant (koff) amounted to 0.00026 s⁻¹ and the association rate constant (kon) was found to be 2.3e+07 M⁻¹ s⁻¹. In the assay with ActRIIB-Fc homodimer [5], this molecule showed a dissociation constant (Kd) of 0.025 nM, an off-rate (koff) of 0.00015 s⁻¹ and an on-rate (kon) of 5.9e+06 M⁻¹ s⁻¹. In the assay with ActRIIB-Fc homodimer [6], this molecule showed a dissociation constant (Kd) of 0.004 nM, a koff of 0.0002 s⁻¹ and a kon of 5.1e+07 M⁻¹ s⁻¹.

In the assay with ActRIIB-Fc homodimer [4], B6 gave a Kd of 0.077 nM, a koff of 0.0011 s⁻¹ and an on-rate constant (kon) of 1.4e+07 M⁻¹ s⁻¹. For the same molecule, in the assay with ActRIIB-Fc homodimer [5], binding was characterised by a dissociation constant (Kd) of 0.01 nM, the off-rate (koff) came to 0.001 s⁻¹ and the kon turned out to be 1.2e+08 M⁻¹ s⁻¹. In the assay with ActRIIB-Fc homodimer [6], this molecule returned a Kd of 0.25 nM, a koff of 0.0013 s⁻¹ and an on-rate (kon) of 5e+06 M⁻¹ s⁻¹.
